The chains are these.
B1: Ribonuclease, P00648 (parent)
chain: MMKMEGIALKKRLSWISVCLLVLVSAAGMLFSTAAKTETSSHKAHTEAQVINTFDGVADYLQTYHKLPDNYITKSEAQALGWVASKGNLADVAPGKSIGGDIFSNREGKLPGKSGRTWREADINYTSGFRNSDRILYSSDWLIYKTTDHYQTFTKIR

The data set covers variants of B1. Conditions: Bacillus amyloliquefaciens; pH 6.3; 25 °C; Urea; Fluorescence; MES-NaOH 450 mM; reversible: yes; structure 1BNI; whole UniProt chain shown.

Turning to N124A, the “ddG of mutation (higher = less stable)” value stood at 1.45 kcal/mol, the denaturant m value was found to be 1.98 kcal/mol/M, the “denaturant midpoint (higher = more stable)” value (shortened to “denaturant midpoint”) came out at 3.7 M and the unfolding free energy was 7.37 kcal/mol.
For the variant S138A, the “ddG of mutation (higher = less stable)” value was found to be 2.41 kcal/mol, the denaturant m value was 1.79 kcal/mol/M, the “denaturant midpoint” value worked out at 3.5 M and the unfolding free energy was found to be 6.41 kcal/mol.
The corresponding values for N52A are 1.59 kcal/mol, 2 kcal/mol/M, 3.6 M and 7.23 kcal/mol.
In the case of Y125F, the “ddG of mutation (higher = less stable)” value came to 1.14 kcal/mol, the denaturant m value turned out to be 1.98 kcal/mol/M, the “denaturant midpoint” value came to 3.8 M and the unfolding free energy came to 7.68 kcal/mol.
For the variant R157A, the “ddG of mutation (higher = less stable)” value is -0.07 kcal/mol, the denaturant m value stood at 2.03 kcal/mol/M, the “denaturant midpoint” value came to 4.3 M and the unfolding free energy amounted to 8.89 kcal/mol.
L136V: the “ddG of mutation (higher = less stable)” value was determined as 0.47 kcal/mol, the denaturant m value was 1.89 kcal/mol/M, the “denaturant midpoint” value was determined as 4.4 M and the unfolding free energy came to 8.35 kcal/mol.
Take L136T: the “ddG of mutation (higher = less stable)” value came to 3.28 kcal/mol, the denaturant m value was 1.78 kcal/mol/M, the “denaturant midpoint” value was found to be 3.1 M and the unfolding free energy stood at 5.54 kcal/mol.
I72A: the “ddG of mutation (higher = less stable)” value was 3.68 kcal/mol, the denaturant m value worked out at 1.85 kcal/mol/M, the “denaturant midpoint” value was determined as 2.7 M and the unfolding free energy turned out to be 5.14 kcal/mol.
For the variant I72V, the “ddG of mutation (higher = less stable)” value is 0.83 kcal/mol, the denaturant m value turned out to be 2 kcal/mol/M, the “denaturant midpoint” value turned out to be 4 M and the unfolding free energy came to 7.99 kcal/mol.
Take I123A: the “ddG of mutation (higher = less stable)” value is 1.66 kcal/mol, the denaturant m value was 1.99 kcal/mol/M, the “denaturant midpoint” value was 3.6 M and the unfolding free energy was 7.16 kcal/mol.
Take I123V: the “ddG of mutation (higher = less stable)” value came to 0.98 kcal/mol, the denaturant m value is 1.89 kcal/mol/M, the “denaturant midpoint” value was 4.1 M and the unfolding free energy is 7.84 kcal/mol.
As for T146V, the “ddG of mutation (higher = less stable)” value came out at 2.92 kcal/mol, the denaturant m value came to 1.84 kcal/mol/M, the “denaturant midpoint” value was 3.2 M and the unfolding free energy is 5.9 kcal/mol.
The corresponding values for T152V are 2.14 kcal/mol, 1.95 kcal/mol/M, 3.4 M and 6.68 kcal/mol.
In the case of Y71F, the “ddG of mutation (higher = less stable)” value was -0.09 kcal/mol, the denaturant m value is 1.95 kcal/mol/M, the “denaturant midpoint” value turned out to be 4.5 M and the unfolding free energy worked out at 8.91 kcal/mol.
Regarding V83A, the “ddG of mutation (higher = less stable)” value was found to be 1.68 kcal/mol, the denaturant m value is 1.83 kcal/mol/M, the “denaturant midpoint” value is 3.9 M and the unfolding free energy was determined as 7.14 kcal/mol.
For the variant V83T, the “ddG of mutation (higher = less stable)” value is 1.05 kcal/mol, the denaturant m value came out at 1.95 kcal/mol/M, the “denaturant midpoint” value was 3.9 M and the unfolding free energy is 7.77 kcal/mol.
On to Y60A Y64A, for which the “ddG of mutation (higher = less stable)” value is 3.96 kcal/mol, the denaturant m value was determined as 2 kcal/mol/M, the “denaturant midpoint” value is 2.43 M and the unfolding free energy amounted to 4.86 kcal/mol.
On to Y150F, for which the “ddG of mutation (higher = less stable)” value was 0.18 kcal/mol, the denaturant m value turned out to be 1.89 kcal/mol/M, the “denaturant midpoint” value was 4.5 M and the unfolding free energy amounted to 8.64 kcal/mol.
On to Y60A, for which the “ddG of mutation (higher = less stable)” value is 3 kcal/mol, the denaturant m value is 2.03 kcal/mol/M, the “denaturant midpoint” value is 2.8 M and the unfolding free energy was found to be 5.82 kcal/mol.
Take N70A: the “ddG of mutation (higher = less stable)” value is 2.2 kcal/mol, the denaturant m value stood at 1.94 kcal/mol/M, the “denaturant midpoint” value was determined as 3.4 M and the unfolding free energy came to 6.62 kcal/mol.
With I143A, the “ddG of mutation (higher = less stable)” value was found to be 3.15 kcal/mol, the denaturant m value is 1.96 kcal/mol/M, the “denaturant midpoint” value stood at 2.8 M and the unfolding free energy was 5.67 kcal/mol.
With I143V, the “ddG of mutation (higher = less stable)” value amounted to 1.02 kcal/mol, the denaturant m value amounted to 1.9 kcal/mol/M, the “denaturant midpoint” value was 4.1 M and the unfolding free energy was determined as 7.8 kcal/mol.
With N88D, the “ddG of mutation (higher = less stable)” value was 2.62 kcal/mol, the denaturant m value is 1.89 kcal/mol/M, the “denaturant midpoint” value was found to be 3.2 M and the unfolding free energy worked out at 6.2 kcal/mol.
Turning to D55A D59A, the “ddG of mutation (higher = less stable)” value amounted to 1.41 kcal/mol, the denaturant m value came out at 1.78 kcal/mol/M, the “denaturant midpoint” value is 4.16 M and the unfolding free energy is 7.41 kcal/mol.
Turning to I102T, the “ddG of mutation (higher = less stable)” value is 1.24 kcal/mol, the denaturant m value is 1.84 kcal/mol/M, the “denaturant midpoint” value was determined as 4.1 M and the unfolding free energy amounted to 7.58 kcal/mol.
In the case of I102V, the “ddG of mutation (higher = less stable)” value worked out at 0.63 kcal/mol, the denaturant m value worked out at 1.85 kcal/mol/M, the “denaturant midpoint” value came out at 4.4 M and the unfolding free energy amounted to 8.19 kcal/mol.
Regarding Y64A, the “ddG of mutation (higher = less stable)” value was found to be 1.67 kcal/mol, the denaturant m value was determined as 2.02 kcal/mol/M, the “denaturant midpoint” value came to 3.5 M and the unfolding free energy was found to be 7.15 kcal/mol.
In the case of I156V, the “ddG of mutation (higher = less stable)” value was found to be 0.81 kcal/mol, the denaturant m value stood at 1.92 kcal/mol/M, the “denaturant midpoint” value stood at 4.1 M and the unfolding free energy is 8.01 kcal/mol.
Regarding I156A, the “ddG of mutation (higher = less stable)” value came out at 1.27 kcal/mol, the denaturant m value is 2.15 kcal/mol/M, the “denaturant midpoint” value was found to be 3.5 M and the unfolding free energy came out at 7.55 kcal/mol.
Turning to D55A D59A R157A, the “ddG of mutation (higher = less stable)” value was -0.18 kcal/mol, the denaturant m value amounted to 1.94 kcal/mol/M, the “denaturant midpoint” value was found to be 4.63 M and the unfolding free energy is 9 kcal/mol.

(Values after FireProtDB (doi:10.1016/0022-2836(92)90562-x).)
